The results in this text go back to article PMC6251712 (Archives of biochemistry and biophysics, 2018).

The target of experiment [1] is FAM-labeled c-MET peptide (1353-1360) with Y1356 phosphorylated, FAM-N-A-T-pY-V-N-V-K. Description: fluorescence polarisation. A general note: In fluorescence polarisation assays a small probe gives low polarisation when free and higher when bound to something large.
The target in experiment [2] is SHIP2 SH2 domain (SHIP2-SH2), wild type (human) (UniProt O15357). The experiment is described as follows: NMR titration.
Another experiment deals with T1, SHIP2-SH2 R70A (human, UniProt O15357 20-117, R70A).
T1 sequence (looked up): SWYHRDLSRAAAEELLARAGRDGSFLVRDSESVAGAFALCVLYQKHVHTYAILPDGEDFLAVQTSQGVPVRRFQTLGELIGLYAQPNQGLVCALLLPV
The experiment is described as follows: fluorescence polarisation.

The target of another experiment is T2, SHIP2-SH2 R28A (human, UniProt O15357 20-117, R28A).
T2 sequence (looked up): T1 sequence (looked up) with R9A, A51R
The experiment is described as follows: fluorescence polarisation.

The target of a further experiment is T3, SHIP2-SH2 S84A (human, UniProt O15357 20-117, S84A).
T3 sequence (looked up): T1 sequence (looked up) with A51R, S65A
Description: fluorescence polarisation.

In another experiment the target is T4, SHIP2-SH2 D48A (human, UniProt O15357 20-117, D48A).
T4 sequence (looked up): T1 sequence (looked up) with D29A, A51R
Description: fluorescence polarisation.

Another experiment has as its target T5, SHIP2-SH2 E50A (human, UniProt O15357 20-117, E50A).
T5 sequence (looked up): T1 sequence (looked up) with E31A, A51R
Description: fluorescence polarisation.

The target of another experiment is T6, SHIP2-SH2 S49A (human, UniProt O15357 20-117, S49A).
T6 sequence (looked up): T1 sequence (looked up) with S30A, A51R
The experiment is described as follows: fluorescence polarisation.

A further experiment concerns the target T7, SHIP2-SH2 S27A (human, UniProt O15357 20-117, S27A).
T7 sequence (looked up): T1 sequence (looked up) with S8A, A51R
The experiment is described as follows: fluorescence polarisation.

A further experiment concerns the target T8, SHIP2-SH2 Q82A (human, UniProt O15357 20-117, Q82A).
T8 sequence (looked up): T1 sequence (looked up) with A51R, Q63A
The experiment is described as follows: fluorescence polarisation.

Residue numbers refer to the chain shown, from its start. Non-standard residues stand in square brackets, D forms with d. No end group written: not given here. FAM = fluorescent label on the peptide N-terminus (FAM, not expanded in the evidence); pY = N[C@@H](Cc1ccc(OP(=O)(O)O)cc1)C(=O)O

Regarding “SHIP2 SH2 domain (SHIP2-SH2), wild type (from UniProt O15357 20-117) (domain or fragment)”, in experiment [1], the dissociation constant Kd (as a rule, the equilibrium constant for the complex coming apart) was found to be 7.4 µM.
Take “Y1356-phosphorylated c-MET peptide (1353-1360), N-A-T-pY-V-N-V-K, unlabeled”: the dissociation constant Kd in [2] amounted to 16.5 µM.
For {FAM}-NAT[pY]VNVK [FAM-labeled c-MET peptide (1353-1360) with Y1356 phosphorylated, FAM-N-A-T-pY-V-N-V-K], the Kd amounted to 239 ± 12.1 µM in the experiment with SHIP2-SH2 R70A; 24.7 ± 1 µM in the experiment with SHIP2-SH2 R28A; 6.4 ± 0.2 µM with SHIP2-SH2 S84A; 5.5 ± 0.2 µM with SHIP2-SH2 D48A; 3.2 ± 0.1 µM in the experiment with SHIP2-SH2 E50A; 134 ± 5.6 µM with SHIP2-SH2 S49A. Further, the values for the Kd with SHIP2-SH2 S27A and with SHIP2-SH2 Q82A were 7.3 ± 0.3 µM and 7.5 ± 0.3 µM, respectively.
